The target in this experiment is C-CA (W184A/M185A) (HIV-1) (UniProt P04591). Put plainly: NMR, slow exchange kinetics of binding.

What is called Kd is the free concentration of one partner at which half of the binding sites on the other are occupied at equilibrium, for simple one-to-one binding. Low readings indicate tighter binding, high ones weaker binding. Consider NYAD-1 (peptide), for which the Kd is less than 10 µM.
